In ChEMBL document CHEMBL1145290, “Beta-glucuronidase-cleavable prodrugs of O6-benzylguanine and O6-benzyl-2'-deoxyguanosine” (J Med Chem, 2005):

Legend:
[1] = substrate: O=C(Nc1nc(OCc2ccccc2)c2[nH]cnc2n1)OCc1ccc(O[C@@H]2OC(C(=O)O)[C@@H](O)C(O)[C@@H]2O)c([N+](=O)[O-])c1; test: (§1) Vmax value using Escherichia coli beta-glucuronidase obtained at 370 C in MOPS buffer of pH 7.0
[2] = substrate: O=C(Nc1nc(OCc2ccccc2)c2ncn([C@H]3C[C@H](O)[C@@H](CO)O3)c2n1)OCc1ccc(O[C@@H]2O[C@H](C(=O)O)[C@@H](O)[C@H](O)[C@H]2O)c([N+](=O)[O-])c1; test: as §1
[3] = substrate: O=C(Nc1nc(OCc2ccccc2)c2[nH]cnc2n1)OCc1ccc(O[C@@H]2OC(C(=O)O)[C@@H](O)C(O)[C@@H]2O)c([N+](=O)[O-])c1; test: (§2) KM value using Escherichia coli beta-glucuronidase obtained at 370 C in MOPS buffer of pH 7.0
[4] = substrate: O=C(Nc1nc(OCc2ccccc2)c2ncn([C@H]3C[C@H](O)[C@@H](CO)O3)c2n1)OCc1ccc(O[C@@H]2O[C@H](C(=O)O)[C@@H](O)[C@H](O)[C@H]2O)c([N+](=O)[O-])c1; test: as §2
[5] = substrate: O=C(Nc1nc(OCc2ccccc2)c2[nH]cnc2n1)OCc1ccc(O[C@@H]2OC(C(=O)O)[C@@H](O)C(O)[C@@H]2O)c([N+](=O)[O-])c1; test: (§3) Vmax value using bovine liver beta-glucuronidase obtained at 370 C in MOPS buffer of pH 7.0; conditions: Bos taurus
[6] = substrate: O=C(Nc1nc(OCc2ccccc2)c2ncn([C@H]3C[C@H](O)[C@@H](CO)O3)c2n1)OCc1ccc(O[C@@H]2O[C@H](C(=O)O)[C@@H](O)[C@H](O)[C@H]2O)c([N+](=O)[O-])c1; test: as §3; conditions: Bos taurus
[7] = substrate: O=C(Nc1nc(OCc2ccccc2)c2[nH]cnc2n1)OCc1ccc(O[C@@H]2OC(C(=O)O)[C@@H](O)C(O)[C@@H]2O)c([N+](=O)[O-])c1; test: (§4) KM value using bovine liver beta-glucuronidase obtained at 370 C in MOPS buffer of pH 7.0; conditions: Bos taurus
[8] = substrate: O=C(Nc1nc(OCc2ccccc2)c2ncn([C@H]3C[C@H](O)[C@@H](CO)O3)c2n1)OCc1ccc(O[C@@H]2O[C@H](C(=O)O)[C@@H](O)[C@H](O)[C@H]2O)c([N+](=O)[O-])c1; test: as §4; conditions: Bos taurus

B1: Beta-glucuronidase (Escherichia coli (strain K12)), P05804 (protein)
chain: MLRPVETPTREIKKLDGLWAFSLDRENCGIDQRWWESALQESRAIAVPGSFNDQFADADIRNYAGNVWYQREVFIPKGWAGQRIVLRFDAVTHYGKVWVNNQEVMEHQGGYTPFEADVTPYVIAGKSVRITVCVNNELNWQTIPPGMVITDENGKKKQSYFHDFFNYAGIHRSVMLYTTPNTWVDDITVVTHVAQDCNHASVDWQVVANGDVSVELRDADQQVVATGQGTSGTLQVVNPHLWQPGEGYLYELCVTAKSQTECDIYPLRVGIRSVAVKGEQFLINHKPFYFTGFGRHEDADLRGKGFDNVLMVHDHALMDWIGANSYRTSHYPYAEEMLDWADEHGIVVIDETAAVGFNLSLGIGFEAGNKPKELYSEEAVNGETQQAHLQAIKELIARDKNHPSVVMWSIANEPDTRPQGAREYFAPLAEATRKLDPTRPITCVNVMFCDAHTDTISDLFDVLCLNRYYGWYVQSGDLETAEKVLEKELLAWQEKLHQPIIITEYGVDTLAGLHSMYTDMWSEEYQCAWLDMYHRVFDRVSAVVGEQVWNFADFATSQGILRVGGNKKGIFTRDRKPKSAAFLLQKRWTGMNFGEKPQQGGKQ
B1 was tested, and the Vmax [1] was 7.8 µmol/mg/min, the Vmax [2] was 11 µmol/mg/min and the Km [3] was 17 µM. For the same protein, the Km [4] was 41 µM.

B2: Beta-glucuronidase (Bos taurus), A3KMY8 (protein)
chain: MLRGSAGAWAVLGPLLWGCGLSLLQGGMLYPRESRSRERKELDGLWSFRADFSDNRRQGFEQQWYRAPLRESGPTLDMPVPSSFNDVGQDGQLRSFVGWVWYEREITLPQRWTEDLGTRVVLRIGSAHYYAIVWVNGVHVLEHEGGHLPFEADISKLVQSGPLSSCRITIAINNTLSPHTLPPGTILYKTDPSMYPKGYFVQNTKFDFFNYAGLHRSVLLYTTPTTYIDDITVTTDMDQDIGLVNYQIIVQGSDHFQVDVSLLDEEGKVMAKGAGAEGQLQVPSAHLWWPYLMHEHPAYLYSLEVKLTAQTAVGPVSDFYTLPVGIRTVAVTKSQFLINGKPFYFRGVNKHEDADIRGKGFDWPLLVKDFNLLRWLGANAFRTSHYPYSEEVLQLCDRYGIVVIDESPGVGIVLVESFSNVSLQHHLEVMEEMIRRDKNHPAVVMWSLANEPASFLKPAGYYFKTLIAHTKALDPSRPVTFVTNTNYEADLGAPYVDIICVNSYYSWYHDYGHMEVIQLQLATQFENWYKAYQKPMIQSEYGADAIEGFHEDPPLMFSEEYQKGLLQQYHVVLDQKRKEYVVGELIWNFADFMTNQSPVRMIGNRKGIFTRQRQPKSAAFLLRERYWKLANETRYQRSAVTSQCVGSGLFTV
In the case of B2, the Vmax [5] is reported as 0.27 µmol/mg/min, the Vmax [6] is reported as 0.39 µmol/mg/min and the Km [7] is reported as 240 µM. For the same protein, the Km [8] was 360 µM.
